Results: the DeepSol protein solubility set

Experiment: soluble on expression in E. coli; label from the status in PepcDB or PDB records
For “MAHHHHHHMQTYHRHMTSSSNPVVIFVFDHQGSAVTDFWAPLLQSVSKGLDAFGIEVAHAPTSSEIGQQLLAAMNAGSGPIILFFQGVGDTPAEGGKGLKMPIAYDGNIDMAHIMSWGLSCISSSVTHRVHNDVDLARFFAQYPQYPALPHVLYFPSTSYTPGGYLALSQHFALDAVFGVVPNAFTAPNATHIAQRYNITSKDELPVLLVLHRSTADAGGGAGESDRVVRMPAAATSLSYREALAFLSTQITDTVAALVAKAESTQNQHFLEVAESRRVYMMGQLIERQHDIVEEERLQMAREPILVKDQAVWAKECVQLPKKHRCVAAFVDSAQDSAAKDNAVKVLSLVSVKLLEIMGREAQKVSLVVVDRQGSDAVREYFDVGHNGFPDVLFLSLDRPAKYYNFVGTFSAEGVTQFVASHDAQLTQKDVRGGHTFIPRMVPKLEEAVAVPRSGDEDKDDL”, the “soluble on expression in E. coli” value was “soluble”. For “MELAAGSFSEEQFWEACAELQQPALAGADWQLLVETSGISIYRLLDKKTGLYEYKVFGVLEDCSPTLLADIYMDSDYRKQWDQYVKELYEQECNGETVVYWEVKYPFPMSNRDYVYLRQRRDLDMEGRKIHVILARSTSMPQLGERSGVIRVKQYKQSLAIESDGKKGSKVFMYYFDNPGGQIPSWLINWAAKNGVPNFLKDMARACQNYLKKT”, the “soluble on expression in E. coli” value was “soluble”. For “MNYNIRGENIEVTPALKDHVERKIGKLERYFDHSVDADVNVNLKFYNDKESKVEVTIPMTDLALRSEVHNEDMYNAIDLATNKLERQIRKHKTKVNRKFREQGSPKYLLANGLGSDTDIAVQDDIEEEESLDIVRQKRFNLKPMDSEEAILQMNMLGHNFFVFTNAETNLTNVVYRRNDGKYGLIEPTELEHHHHHH”, the “soluble on expression in E. coli” value was “soluble”. For “MEVSTVNDVKIYNLSAGKSLPEWMSSRTRRKLEQRNTDVRQRIQLIQDFEMPDVSNTVNITPDGKYVWASGNYKPWLRCYDLNNLSLKFERGLDADVIKLIPLSDDYSKVVILEEERWIEMHAMLGRYFRMRMPCQGRDMALSEESSDLYLVGSKSEVYRFNLEQGCWLTPFESTAPLNCVQVCTEHQLICCGTTNGVVEAWDHRDKSLCGTLDAGSSVNSHIGENQKVAVTSVAFSDPLHIGVGTSTGQILIYDLRARRPLLIKDHNNELPINKLDFIKRDDGDVVASMDSRMMKLWHEEDGSPMAAIENTCPLNDFCRFPNSGMFFFANEAPKMLQYFIPQLGPAPKWCSYLENLTEEMEETETTVYDNYRFVTKKQLDDLGLSGLIGTNVLRAYMHGYFIDARLYNKAQTQMQPFAYEKYKDEKIKSMIADEREESAVKKKVEKLPAVNKALAARLRDEASAANQKAETKKEKKKSKKSDAATSLLADDRFKKLFESEDFEVDETSEQFLKNASIAQKMKAKGPVEVESEGEESEDNDASDSENEASGSDSEPKGSASWMVEENREVDMASDLESASSDEDIDQSLKAKRAKVRAAKKSERNIQKSQKYDERKEAKKIRKEQRQLSKPSKFVLHSIGTGETTRKFVDETVAVRDDADNKDSMALGARKRATARSDRKTKKVNDDDVPFGGREMTFTISKRDKDLRAEAAKTKQAAHAAERKEVSRRPNALVTKGLKKLPGNVNVGKRQNTF”, the “soluble on expression in E. coli” value was “soluble”. In the case of “MSLENKKMEFWFVVGSQHLYGEEALKEVRKNSETIVDELNKSANLPYKIIFKDLATSADKIKEIMKEVNYRDEVAGVITWMHTFSPAKMWIAGTKILQKPLLHFATQYNENIPWKTIDMDYMNLHQSAHGDREYGFINARLKKHNKVVVGYWKDKEVQKQVSDWMKVAAGYIASESIKVARFGDNMRNVAVTEGDKVEAQIQFGWTVDYFGIGDLVAEMDKVSQDEINKTYEEFKDLYILDPGENDPAFYEKQVKEQIKIEIGLRRFLEKGNYNAFTTNFEDLYGMKQLPGLAVQRLNAEGYGFAGEGDWKTAALDRLLKVMTNNTATGFMEDYTYELSRGNEKALGAHMLEVDPTFASDKPKVIVKPLGIGDKEDPARLIFNGSTGKGVAVSMLDLGTHYRLIINGLTAVKPDEDMPNLPVAKMVWKPEPNFIEGVKSWIYAGGGHHTVVSLELTVEQVYDWSRMVGLEAVIIDKDTKLRDIIEKTTEGHHHHHH”, the “soluble on expression in E. coli” value was “soluble”. With “SSLIKKIEENERKDTLNTLQNMFPDMDPSLIEDVCIAAASRIGPCVDALLSLSE” the “soluble on expression in E. coli” value was “soluble”. In the case of “RRMVALYDYDPRESSPNVDVEAELTFCTGDIITVFGEIDEDGFYYGELNGQKGLVPSNFLEEV”, the “soluble on expression in E. coli” value was “soluble”. For “MTTNPIELESCIIDQIRCPECALTCLQKNIYRHMTQIHNWTTEDCQELIAAIKSEKKSRASSTSFVCCHCRMIFRSVKHLVQHKKMCTEQPQHDNEHLDVYIDEMIVEGEEEVVGINEYDINETKESTQKPSTSSGDSFEMNIPPHRQASRPIQPHHLTQECQIATIIEKPSKFSLMQLPGKYRGCNLKCPECSSTSESLDEFLLHCRQEHMSHDQKFNLEREFFQSRDQFKEWFDQRQEDTCTSLTKRTGHAGETLYRCHRVGKYQSVAKSRKSNPRKIDQTCTAYLKVTTEEDGSTWATGCFTHIGHDLDHKLLWLTESQEKYVRELIDLGWTSDQIFFFIRNEYKDYECKLKYISKNDIRNITVRYNREREKLGFLTDTAKSSAIPISLKERRAVAADSTKEPREEDDDEVKAKIPRMQSKPDNIEKATTSENNSAKHREQVVDSETAEEDEYINVVDVDTMPPNDAGKITIGLNF”, the “soluble on expression in E. coli” value was “not soluble”. In the case of “MSLDPVGPISDEETSYYVRLQYNGEILPLFTKIEGIEYKKATDIHNPLKASFIAGGGAFGYKMDDIRVDVEGLYSQLNKNDVTGAAFNPDTVADSLTAISGLVNVYYDIAIEDMPITPYVGVGVGAAYISTPLKDAVNDQKSKFGFAGQVKAGVSYDVTPEVKLYAGARYFGSFGAHFDKDTAAASKDKGELKVLYSTVGAEAGVAFNFEGHHHHHH”, the “soluble on expression in E. coli” value was “not soluble”. In the case of “SKLSPIIMIPGSSATENRFDGLVRKLNQDRRGTKHSLLKVKVWNNGRITFEGKIRKNDNEPIIVIGFENNKDGYSNIKKQAKMMNQAFEALQNKYNFNNFKGLAHSNGGLIYTAFIENDLSDYDVKINSLMTIGTPYNFTETNIKNKSVMLADFIAAKENIPSTLHVYSVAGTITYDSDELVPDASVSAGKYIYQNQAKSYTEITVTGEDAQHSDLPTNDEVVDLIKQHIEGQGLRKKQKTKLEPQ”, the “soluble on expression in E. coli” value was “not soluble”. For “MSLGLINVLIADDQTLMREGLKTIIDLEDDMNVTGLAKNGKEVLDQIPCLLPHVILMDIQMPIMNGIECLKVVKRIYPHINVLMLTTFEDDDYIIESLVGGANGFLLKDLNYDQLIYSIRQSVDGQMLIPNSIAVKLAKQLSKYNELTEVDLQIEKLKKEGLHFSERERQIASLLAQGLTNKKIAEKLYITEGTVKNYISEIYSKIGIRDRMQASTYLRELGINDEGHHHHHH”, the “soluble on expression in E. coli” value was “soluble”. In the case of “MEIQFLGTGAGQPAKARNVSSLVLKLLDELNEIWMFDCGEGTQRQILETTIKPRKIRKIFITHLHGDHVFGLPGFLSSRAFQANDEQTDVDIYGPVGIKHLVMASIRTSGAHLPYHIHFHEFDAKHLGKILETDKFMVYAEKLDHTIFCVGYRVVQKDLEGTLDAEKLKAAGLPFGPLFGRVKNGQDVVLEDGTTIIAKDYISAPKKGKVITILGDTRKTDASIRLALGADVLVHESTYSKGDENLARRHGHSTNTEAARVAKAASVKKLLLNHISARFLSHDISRMRDDAQEIFTDVHIVRDLEEVKLLEHHHHHH”, the “soluble on expression in E. coli” value was “not soluble”. With “MGSDKIHHHHHHMERPTGVYFQTMTMKQIRERLKQCDLIIIPVGSTENHGPNAPTGEDTFLVTRMAEQVALKTGCTVAEPIWYGYHPYHHIGMPGTVPVKDEAFIDYLVSVIAGFWNTGFRKQILLNGHGQEFVIPIAIHKFAKIFQVPAIIINLNWYHAIQDKFKTKEEGGPYETPFIHADEVETSWSLALFPEFMHQEWAVDTEPKGFLPEGHIDKAGNLLHRPIAWYGHVGGGPIEVVAYPEGVVGKATLASAEKAKEGVEALLDYLEKLVRDIMERFPAGKLPPAEMLSQRPKEELEALTKEPLTEGWRNLYTAGNLWG” the “soluble on expression in E. coli” value was “not soluble”. With “KGHAWTHSAGEPLRVVAIQGNIAQELKWDPNQVRAQLDLYRDLSLPQQDVDLIVWPETAVPILQDMASGYLGAMGQVADEKNAALITGVPVRERLADGKSRYFNGITVVGEGAGTYLKQKLVPFGEYVPLQDLLRGLIAFFDLPMSDFARGPADQPLLKAKGYQIAPYICYEVVYPEFAAALAAQSQVLLTVSNDTWFGTSIGPLQHLQMAQMRALESGRWMIRATNNGVTGLIDPYGRIVRQIPQFQQGILRGEVIPMQGLTPYLQYR” the “soluble on expression in E. coli” value was “not soluble”. In the case of “SSRERIKRELPPVQEHIDKLRKVIEEGNYYGALQMYKSISARYVTAQRFSEALDILFSGACIELEHGLVNCGADLAILFVDTLVKATSPCNDETLDRIRCIFKLFPRVPVPPHLVDVSDDEDVQNLQESLGEARSRVENLTSFLRAAIKWSAEFGGPRTGYPELHAMLGDYLYTECPELDMVRISRHFVRAEDPEKFASMLVNFMGRCYPGEDDLAIARAVLMYLSMGNMKDANFMMDEIKKQAETKNPELSESDLIQFISYLLETLQRDALPLFNMLRVKYKSSIDRDQLLNELLDEIAERFYGVQRKNPLQGMFGDIFKMMG”, the “soluble on expression in E. coli” value was “soluble”. With “MLDVPVLLAAVSPDSPCGDDLEYDAAFLELERIAQGQPERQMGDAVLPAEPPEWPRVRALASELFGRSKDLRVANLLLQSNVALDGLDGLADGLLLVRELLGQYWDGVYPLLDADDDNDPTFRINALTGLVAEPLLQLVWAIPLVRSRAFGPVNLRAALNAAGLQRFASETLSPEQIAGAFADADADALAATRRALDGAQEHALAIESGVAERVGSAQGLDLGPLRQLLRQALQVFDLYGPQGAGESLAPGAEAVADEQVGAAPVAAVAAPAPRASGEIANREDVLRQLDRLLEYYVRHEPSSPVPVLLKRAKTLVTADFAEIVRNLIPDGISQFETLRGPESE” the “soluble on expression in E. coli” value was “not soluble”. For “MDPTQISHLALDIGGTLIKLVYFSANGDYSEESRNGCSVVKGRLCFAKFETRKIDDCLEFIRFNILHHSEVTIQVYSNRMAKATGGGAFKFADLFKEKLGILFDKEDEMCSLVGGVNFLLKTVPREAFTYLDGQKKFVEIDHNDLYPYLLVNIGSGVSMIKVDGDGKYERISGTSLGGGTFLGLGKLLTKCKSFDELLELSHHGNNRVIDMLVGDIYGGTDYSKIGLSSTAIASSFGKAISDGKELEDYQPEDVARSLLRMISNNIGQIAYLNALRFGLKRIFFGGFFIRGLEYTMDTISVAVHFWSRGEAKAMFLRHEGFLGALGAFTSYNDQSHNDLKPHHHTVQRAILNCSGHNFRHIPVTSNLNESETIECSINLV”, the “soluble on expression in E. coli” value was “soluble”. With “MGSDKIHHHHHHMSAQTRPAPGRHTIRVSEDDCGLGQFGGGAWLSDAALWPSDPSTGRPMTPIVMLTDLFLPSVWLADDMAVTVFAALGRESDAYNRTALRTFTIHQQSELEKIDAGHSKVVLHRRAAREMVRETVMLPRHFVGLQPFDERDAEEEAEDADNGAGMSKQLGRPYWLQDPIHAHPRHYFLSQFVESDLRQQDPAYDGLFADGTGYLFAEQRAKVLREGDTAGYFFIQFT” the “soluble on expression in E. coli” value was “not soluble”. For “MKKLLIMLIRFYQRYISPLKPPTCRFTPTCSNYFIQALEKHGLLKGTFLGLRRILRCNPLSKGGYDPVPEEFSFKPRRRWS”, the “soluble on expression in E. coli” value was “soluble”. With “MGSDKIHHHHHHVAKAELMQLPASQMVIGLTVKLPLGWTQHPFFINRIKLTSQAQIELIRGLELTFVYVLSGHELLPEVIEEVEDKQADPMQVKAKPKKVLDSKAAVIKAMRVGQQRFLSNINESRSVFAQFAIEPDKAYREAATMVEGFVDHLQETDTPYLALVGSGEMDVSVTQHGISVAVLSLMIGHALELPKSDLRDLALGSLFHDFGKLKIPDNIRRKRSELTEPEQNYLKMHPNLGFDLLNACNLYPKSVLNIVLHHHEYIDGSGYPDHLTEKDIPLLTQIVSLANDYEGLLEQFTFSPQLALGTLFKSHAKKHAQNLIAALVKVLGIYPPGTLVSLSDGSIGKVMMTTREVKQPHVWSCNLGGGEANLRFLLEEDVTVSSVLRLEELTEGALKTLQADSPISFYFSALPDN” the “soluble on expression in E. coli” value was “not soluble”. For “MPHPNRTFKIVIAPDSFKSTATTSQAAAFIAEGIQAAVQSNECEGINVEITTVPMADGGEGTSSCFEGIDITLPTTDANGRLTEATYRFDPQSETAYIDVAAASGLPAVEDELRPLTADTYGTGVLIADAQTRGARR”, the “soluble on expression in E. coli” value was “not soluble”.
